# Laboratory results from patent US20080226630A1.
# pKd: −log10 of the molar value.
# Target: RSV protein F (recombinant or purified F protein) (human respiratory syncytial virus, strain not stated)
# Assay: SPR Biacore 3000, Fab over amine-coupled recombinant protein F
substance,measurement,value
Fab fragment derived from commercially available Palivizumab (Synagis),pKd,8.42
same,koff,0.000757 s⁻¹
same,kon,200000 M⁻¹ s⁻¹
same,t1/2,15 min
